Data: article doi:10.1101/2021.04.14.439868

What was measured:
LuxR = molecular target: T1, LuxR (Vibrio campbellii BB120, UniProt P21308 1-205); assay: EMSA
T1 sequence: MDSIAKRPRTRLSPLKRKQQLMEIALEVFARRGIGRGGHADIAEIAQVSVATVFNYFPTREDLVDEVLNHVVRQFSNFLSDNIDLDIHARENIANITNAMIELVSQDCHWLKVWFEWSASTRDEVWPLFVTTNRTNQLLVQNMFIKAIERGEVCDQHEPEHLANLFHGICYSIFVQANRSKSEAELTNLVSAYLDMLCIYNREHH

SmcR = molecular target: T2, SmcR (Vibrio vulnificus ATCC 27562, UniProt Q9L8G8 1-205); assay: EMSA
T2 sequence: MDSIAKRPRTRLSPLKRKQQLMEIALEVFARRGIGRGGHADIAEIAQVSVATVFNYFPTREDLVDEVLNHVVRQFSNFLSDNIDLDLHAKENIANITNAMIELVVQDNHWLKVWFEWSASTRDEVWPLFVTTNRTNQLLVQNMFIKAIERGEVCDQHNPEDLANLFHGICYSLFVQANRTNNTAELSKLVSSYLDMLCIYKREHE

Binder	binding result (LuxR)	binding result (SmcR)
luxC promoter site B (JDN54/JDN55) (dsDNA) DNA 1: TTACTTATTTATAGTGTTACAAATAACATTA DNA 2: TAATGTTATTTGTAACACTATAAATAAGTAA	binds	
vvpE promoter (AB324/AB325) (dsDNA) DNA 1: ATAAATCAAATTTGTAACTTTATTTCTGAGATGACTGTCCCATTTATCTTATTGATAAATCTGCGTAAAAAAGAAAAAGCACAATTTTATTACTAGTGTTT DNA 2: AAACACTAGTAATAAAATTGTGCTTTTTCTTTTTTACGCAGATTTATCAATAAGATAAATGGGACAGTCATCTCAGAAATAAAGTTACAAATTTGATTTAT		binds
